# US20220275357A1, “CAPSULE PROTEIN AND MULTIMERIC COMPLEX COMPOSITION THEREOF, AND PHARMACEUTICAL COMPOSITION USING SAME” (UNIVERSITY PUBLIC CORPORATION OSAKA, priority 2019, published 2022)
# What was measured:
# Type in all cases: physicochemical
# [1] = Equilibrium dialysis of dipyridamole-loaded capsule proteins (holding force); conditions: dipyridamole encapsulated instead of SN-38, external solution PBS, FIG. 10
# Procedure: (§1) With a dialysis membrane (Dialysis Membrane, Size 27 Wako molecular weight cut-off: 14,000), each 5 mL of samples was each dialyzed against 150 mL of PBS as an external solution in an incubator at 37° C. for 72 hours. Each of the samples included the solution of SN-38/mutant L-PGDS, SN-38/barrier-attached D-clip mutant or SN-38/targeting barrier-attached D-clip mutant. The samples were prepared to contain 50 uM of SN-38 and 50 uM of the respective capsule proteins.
# (§2) At 0, 1, 3, 6, 8, 12, 24, 36, 48, 60, and 72 hours after the start of dialysis, 500 μL of the external solution was sampled, and the same amount of PBS was added instead. SN-38 concentration in the sampled external solutions was measured with a fluorescence spectrophotometer F-7000 (HITACHI; excitation wavelength: 365 nm; measuring wavelength: 380 to 600 nm; and monitoring temperature: 37° C.).
# Dipyridamole is a poorly water-soluble antianginal drug. The external solution was PBS. Referring to FIG. 10, the horizontal and the left vertical axes represent the reaction time (hr) and dipyridamole concentration (nM), respectively. In addition, the right vertical axis represents the release rate (%), or a value converted from the concentration on the left vertical axis.
# [2] = Size measurement by small-angle X-ray scattering (SAXS); conditions: 25° C.; for Rg: radius of gyration from Guinier region
# Procedure: Size of the obtained octameric composition was measured by small-angle X-ray scattering (SAXS). For comparison, size of the mutant L-PGDS was also measured.
# SAXS data collection was carried out at BL40B2, a beamline in the SPring-8 synchrotron radiation facility (Sayo-gun, Hyogo). The X-ray wavelength was tuned to 1.000 A (angstrom), the sample-to-detector distance was set to 2.193 m, and the experiments were performed at 25° C. The exposure times for each measurement were 20 to 50 s. Scattering intensity was recorded with PILATUS-2M (RIGAKU, Tokyo) as a detector.
# A sample cell with a thickness of 3.0 mm was used to maximize scattering of X-ray. The windows of the cell were made of 0.02 mm thick quartz plates. To avoid systematic errors, the inventor measured the sample (protein) and buffer solutions alternately. 25 μL of a sample solution was placed in the cell for its data collection. The solution was removed from the cell; and the cell was then washed 3 times with a buffer solution before data collection of the next sample solution.
# Two-dimensionally recorded scattering patterns of the protein sample and the buffer solutions were transformed to a one-dimensional profile by circular averaging. Contributions to scattering intensities from the solvent were eliminated from the raw data of the sample solutions by subtracting the intensity profile obtained for the buffer solution. Scattering profiles in the small-angle region were analyzed by Guinier's approximation for monodispersive systems: The scattering intensity (I (S,C)) as a function of reciprocal vector (S) and protein concentration (C), is expressed by the forward scattering intensity (I(0,C)) and the radius of gyration Rg(C) (See the following formula (1)).
# wherein, 2θ represents the scattering angle relative to the incident beam, and λ represents the X-ray wavelength.
# The radius of gyration Rg for each sample solution was calculated from Guinier region in its scattering profile. […]
# [3] = Drug releasing capacity: equilibrium dialysis of SN-38-loaded capsule proteins
# Procedure: as §1, §2
# Subsequently, drug release function in response to a reducing environment of the barrier-attached D-clip mutant and the targeting barrier-attached D-clip mutant was evaluated by equilibrium dialysis method in the same manner as described above. PBS and 10 mM DTT/PBS solutions were used as the external solutions for dialysis. The external PBS and 10 mM DTT/PBS solutions simulated oxidizing and reducing environments, respectively.
# The horizontal axis represents reaction time (hr), and the vertical axis represents SN-38 concentration (nM). Error bars represent the standard error of the mean, or mean±standard error (n=3). The abbreviations or symbols in the figure have the following meanings: “SN-38/L-PGDS” or “●” represents SN-38/mutant L-PGDS; “SN-38/Capsule” or “▴” represents SN-38/barrier-attached D-clip mutant; and “SN-38/Cap-sCRGDK” or “▪” represents SN-38/targeting barrier-attached D-clip mutant. The symbols “Δ” and “□” with“+10 mM DTT” represent the results of the pharmaceutical compositions, i.e.“SN-38/Capsule” and “SN-38/Cap-sCRGDK” in the presence of 10 mM DTT, respectively. The addition of DTT (Dithiothreitol) allows the solutions to have a strong reducing environment. […]
Molecule,dipyridamole concentration in external solution [1],Dmax [2],Rg ([2]; listed as Monomer),Rg ([2]; listed as monomer (mutant L-PGDS)),"concentration of SN-38 in the external DTT/PBS solution ([3]; 10 mM DTT/PBS, reached within shorter reaction time, then almost a plateau, FIG. 9(a))","SN-38 concentration in the external DTT/PBS solution ([3]; 10 mM DTT/PBS, at the first 48 hours of dialysis, FIG. 9(b))","concentration of SN-38 in the external solution PBS ([3]; PBS, at the end of the monitoring period, FIG. 9(b))"
"mutant L-PGDS: human L-PGDS variant SEQ ID NO: 2 with C45A and C147A substitutions, GS added to N-terminus (protein, N-terminal GS added; Enzyme inactivation Mutant) GSAPEAQVSVQPNFQQDKFLGRWFSAGLASNSSWLREKKAALSMAKSVVAPATDGGLNLTSTFLRKNQCETRTMLLQPAGSLGSYSYRSPHWGSTYSVSVVETDYDQYALLYSQGSKGPGEDFRMATLYSRTQTPRAELKEKFTAFAKAQGFTEDTIVFLPQTDKCMTEQ",increased over the reaction time,4.75 nm,1.8 ± 0.04 nm,1.8±0.04 nm,2000 nM,,
"barrier-attached mutant (protein, Barrier Mutant) GSAPEAQVSVQPNFQQDKFLGRWFSAGLASNSSWLREKKAALSMAKSVVAPATDGGLNLTSTFLRKNQCETRTWLLQPAGSLGSYSYRSPHWGSTYSVSVVETDYDQYALLYSQGSKGPGEDFRMATLYSRTQTPRAELKEKFTAFAKAQGFTEDTIVFLPQTDKCMTEQ",increased only to the vicinity of the detection limit,,,,,approximately 2.0 μM,≤ 1000 nM
